Source: patent US20040091480A1 (Kyowa Kirin, published 2004)

Assays:
[1] = target: T1, C-terminus-biotin labeled compound 1 (an N-terminus peptide of FGF-8) (human, C-terminus biotin label); assay: BIAcore 2000, biotin FGF-8 peptide on SA chip, antibody in solution, RU compared; dissociation hardly observed
T1 construct: also called FGF-8 peptide
T1 peptide: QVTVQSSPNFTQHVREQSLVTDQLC
Method: In order to examine the activity of various anti-FGF-8 CDR-grafted antibodies obtained in the item 5 of Example 5 to bind to FGF-8 in more detail, activities of various anti-FGF-8 CDR-grafted antibodies to bind to FGF-8 were measured and compared as follows by using BIAcore 2000 (manufactured by BIACORE). The CHO/DG44-derived anti-FGF-8 chimeric antibody KM3034 obtained in the item 3(1) of Example 3 was used as a positive control.
Hereinbelow, HBS-EP (manufactured by Pharmacia) was used as the buffer solution for dilution of samples and during the measurement. First, a sensor tip SA (manufactured by BIACORE) was set, and 5 μl of a C-terminus-biotin labeled compound 1 (an N-terminus peptide of FGF-8; SEQ ID NO:17) prepared to a solution of 0.05 μg/ml was added thereto at a flow rate of […]. Thereafter, the tip surface was washed by adding 5 μl of 10 mmol/l Glycine-HCl buffer (pH 1.5) continuously twice. Immobilized amount of the FGF-8 peptide was 35 RU.
To the FGF-8 peptide immobilized flow cell, 60 μl of each antibody solution was added at a flow rate of 20 μl/minute, and then the dissociation reaction was monitored for 3 minutes. After the dissociation reaction, the tip surface was regenerated by adding 20 μl of 10 mmol/l Glycine-HCl buffer (pH 1.5) continuously twice. This cycle was carried out for antibody solutions of various concentrations (50 to 1.85 μg/ml), and a sensorgram at each concentration was obtained. The sensorgram of each antibody was made into a sensorgram of specific reaction by subtracting a sensorgram obtained using a chimeric antibody KM871 for GD3 [Cancer Immunol. Immunother., 36, 373 (1993)] as a negative control.

[2] = target: T2, FGF-8 (manufactured by R&D) (UniProt P55075-3 23-215, limits assumed); assay: cell-based or functional assay
T2 sequence (looked up): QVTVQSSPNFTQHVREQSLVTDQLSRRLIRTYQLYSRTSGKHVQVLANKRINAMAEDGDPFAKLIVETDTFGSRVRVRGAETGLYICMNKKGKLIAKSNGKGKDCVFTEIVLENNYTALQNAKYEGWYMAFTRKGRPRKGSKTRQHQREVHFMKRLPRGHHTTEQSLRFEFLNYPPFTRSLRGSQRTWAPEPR

[3] = target: T1, C-terminus-biotin labeled compound 1 …; assay: BIAcore 2000, biotin FGF-8 peptide on SA chip, Example 6, RU compared; dissociation hardly observed
[4] = target: T3, human FGF-8 partial peptide (Sequence ID NO:1) cross-linked with thyroglobulin (human, cross-linked to thyroglobulin (THY) with glutaraldehyde); assay: enzyme immunoassay, peptide-thyroglobulin conjugate coated on the plate
T3 construct: Coated on the plate as a thyroglobulin conjugate; also called THY-FGF-8 peptide antigen; FGF-8 peptide
T3 peptide: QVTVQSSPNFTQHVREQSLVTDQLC
Method: A conjugate obtained by cross-linking the human FGF-8 partial peptide shown in Sequence ID NO:1 with thyroglobulin in the following manner was used as the antigen for the assay. That is, 1 mg of the peptide was dissolved in 0.1 M ammonium acetate buffer and the solution was adjusted to 1 ml by adding 5 mg of THY which has been dissolved in advance in the same buffer. To this, while stirring, was added dropwise 540 μl of 0.02 M glutaraldehyde, followed by 5 hours of stirring at room temperature to effect the reaction. After the reaction, the reaction solution was dialyzed overnight against PBS and used as the antigen. A conjugate obtained in the same manner by cross-linking the peptide shown in Sequence ID NO:2 with THY was used as a reference antigen. […] After washing with Tween-PBS, a peroxidase-labeled rabbit anti-mouse immunoglobulin (manufactured by DAKO) was distributed in 50 μl portions into wells of the plate to carry out 1 hour of reaction at room temperature, the plate was again washed with Tween-PBS, and then color development was effected using an ABTS substrate [2,2-azinobis(3-ethylbenzothiazole-6-sulfonic acid)ammonium] solution and absorbance at OD₄₁₅ was measured (NJ 2001, Japan Intermed).

[5] = target: T4, BSA-compound 1 (Compound 1, human FGF-8 peptide, conjugated with bovine serum albumin) (human, conjugated to BSA through SMCC); assay: ELISA on BSA-compound 1, positive control
T4 peptide: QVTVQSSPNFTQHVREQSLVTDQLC
Method: The conjugate prepared in the above was dispensed at 50 μl/well into a 96 well plate for ELISA (manufactured by Greiner) at a concentration of 0.5 to 1.0 μg/ml and allowed to stand for adsorption overnight at 4° C. After washing with PBS, 1% BSA-containing PBS (BSA-PBS) was added at 100 μl/well and allowed for blocking of remaining active groups to react at room temperature for 1 hour. After washing each well with 0.05% Tween-containing PBS (Tween-PBS), culture supernatants of transformants or purified antibodies were added at 50 μl/well and allowed to react at room temperature for 1 hour. After the reaction, each well was washed with Tween-PBS and then a peroxidase-labeled goat anti-human IgG (H & L) antibody solution (manufactured by American Qualex) diluted 3,000 to 6,000-folds with BSA-PBS was added as a secondary antibody solution at 50 μl/well and allowed to react at room temperature for 1 hour. […] Thereafter, absorbance at 415 nm (OD415) was measured.
The activity of various anti-FGF-8 CDR-grafted antibodies obtained in the item 4 of Example 4 to bind to FGF-8 was measured by the ELISA described in the item 2(6) of Example 3. […]

[6] = target: T4, BSA-compound 1 (Compound 1, human FGF-8 …); assay: ELISA on BSA-compound 1
Method: The conjugate prepared in the above was dispensed at 50 μl/well into a 96 well plate for ELISA (manufactured by Greiner) at a concentration of 0.5 to 1.0 μg/ml and allowed to stand for adsorption overnight at 4° C. After washing with PBS, 1% BSA-containing PBS (BSA-PBS) was added at 100 μl/well and allowed for blocking of remaining active groups to react at room temperature for 1 hour. After washing each well with 0.05% Tween-containing PBS (Tween-PBS), culture supernatants of transformants or purified antibodies were added at 50 μl/well and allowed to react at room temperature for 1 hour. After the reaction, each well was washed with Tween-PBS and then a peroxidase-labeled goat anti-human IgG (H & L) antibody solution (manufactured by American Qualex) diluted 3,000 to 6,000-folds with BSA-PBS was added as a secondary antibody solution at 50 μl/well and allowed to react at room temperature for 1 hour. After the reaction and subsequent washing with Tween-PBS, an ABTS substrate solution [a solution prepared by dissolving 0.55 g of 2,2′-azinobis(3-ethylbenzothiazoline-6-sulfonic acid) ammonium in 1 L of 0.1 M citrate buffer (pH 4.2) and adding 1 μl/ml hydrogen peroxide just before use] was added at 50 μl/well for color development, and the reaction was stopped by adding 5% SDS solution at 50 μl/well. Thereafter, absorbance at 415 nm (OD415) was measured.
The activity of various anti-FGF-8 CDR-grafted antibodies obtained in the item 4 of Example 4 to bind to FGF-8 was measured by the ELISA described in the item 2(6) of Example 3. The YB2/0-derived anti-FGF-8 chimeric antibody KM3334 obtained in the item 3(2) of Example 3 was used as a positive control.

B1: anti-FGF-8 CDR-grafted antibody HV0LV3-1/CHO (antibody, V domains shown)
VH: QVQLVQSGAEVKKPGASVKVSCKASGYTFTDYYLNWVRQAPGQGLEWMGEIDPGSDSIYYNENLEGRVTITADTSTSTAYMELSSLRSEDTAVYYCARYGYSRYDVRFVYWGQGTLVTVSS
VL: DVVMTQSPLSLPVTPGEPASISCRSSQSLVHSNGRTYLEWYLQKPGQSPQVLIYKVSNRISGVPDRFSGSGSGTDFTLKISRVEAEDVGVYFCFQGSHVPYTFGQGTKVEIK
notes: HV.0 + LV.3-1, human gamma1/kappa constant regions, made in CHO/DG44 cells; also called KM8036; FERM BP-8083
- binding result [1]: binds

B2: anti-FGF-8 CDR-grafted antibody HV0LV0/CHO (antibody, V domains shown)
VH: QVQLVQSGAEVKKPGASVKVSCKASGYTFTDYYLNWVRQAPGQGLEWMGEIDPGSDSIYYNENLEGRVTITADTSTSTAYMELSSLRSEDTAVYYCARYGYSRYDVRFVYWGQGTLVTVSS
VL: DIVMTQSPLSLPVTPGEPASISCRSSQSLVHSNGRTYLEWYLQKPGQSPQLLIYKVSNRISGVPDRFSGSGSGTDFTLKISRVEAEDVGVYYCFQGSHVPYTFGQGTKVEIK
- binding result [1]: binds

B3: anti-FGF-8 CDR-grafted antibody HV0LV3-3/CHO (antibody, V domains shown)
VH: QVQLVQSGAEVKKPGASVKVSCKASGYTFTDYYLNWVRQAPGQGLEWMGEIDPGSDSIYYNENLEGRVTITADTSTSTAYMELSSLRSEDTAVYYCARYGYSRYDVRFVYWGQGTLVTVSS
VL: DIVMTQSPLSLPVSLGEPASISCRSSQSLVHSNGRTYLEWYLQKPGQSPQVLIYKVSNRISGVPDRFSGSGSGTDFTLKISRVEAEDVGVYYCFQGSHVPYTFGQGTKVEIK
- FGF-8 neutralization activity, FGF-8-dependent growth of SC-3 cells [2]: ~0.5 fold of the activity of KM3034

B4: anti-FGF-8 CDR-grafted antibody HV0LV4-3/CHO (antibody, V domains shown)
VH: QVQLVQSGAEVKKPGASVKVSCKASGYTFTDYYLNWVRQAPGQGLEWMGEIDPGSDSIYYNENLEGRVTITADTSTSTAYMELSSLRSEDTAVYYCARYGYSRYDVRFVYWGQGTLVTVSS
VL: DIVMTQSPLSLPVSLGEPASISCRSSQSLVHSNGRTYLEWYLQKPGQSPQVLIYKVSNRISGVPDRFSGSGSGTDFTLKISRVEAEDVGVYFCFQGSHVPYTFGQGTKVEIK
notes: HV.0 + LV.4-3, human gamma1/kappa constant regions, made in CHO/DG44 cells; also called KM8035
- FGF-8 neutralization activity, FGF-8-dependent growth of SC-3 cells [2]: ~0.5 fold of the activity of KM3034
- binding result [3]: binds

B5: anti-FGF-8 CDR-grafted antibody HV0LV6/CHO (antibody, V domains shown)
VH: QVQLVQSGAEVKKPGASVKVSCKASGYTFTDYYLNWVRQAPGQGLEWMGEIDPGSDSIYYNENLEGRVTITADTSTSTAYMELSSLRSEDTAVYYCARYGYSRYDVRFVYWGQGTLVTVSS
VL: DVVMTQSPLSLPVSLGEPASISCRSSQSLVHSNGRTYLEWYLQKPGQSPKVLIYKVSNRISGVPDRFSGSGSGTDFTLKISRVEAEDVGVYFCFQGSHVPYTFGQGTKVEIK
notes: also called KM8034
- binding result [1]: binds

B6: anti-FGF-8 monoclonal antibody KM 1334 (antibody, mouse IgG1, V domains shown)
VH: QVQLQQSGAEVARPGASVKLSCKASGYTFTDYYLNWVKQRSGQGLEWIGEIDPGSDSIYYNENLEGRATLTADKSSSTAYMQLNSLTSEDSAVYFCARYGYSRYDVRFVYWGQGTLVTVST
VL: DVLMTQTPLSLPVSLGDQASISCRSSQSLVHSNGRTYLEWYLQKPGQSPKVLIYKVSNRISGVPDRFSGSGSGTDFTLKISRVEAEDLGVYFCFQGSHVPYTFGGGTKLEIK
notes: Mouse IgG1, kappa L chain, purified from ascites; also called anti-FGF-8 mouse antibody KM1334; antibody of hybridoma FERM BP-5451
- binding result [4]: binds

B7: anti-FGF-8 chimeric antibody KM3034 (antibody, V domains shown)
VH: QVQLQQSGAEVARPGASVKLSCKASGYTFTDYYLNWVKQRSGQGLEWIGEIDPGSDSIYYNENLEGRATLTADKSSSTAYMQLNSLTSEDSAVYFCARYGYSRYDVRFVYWGQGTLVTVST
VL: DVLMTQTPLSLPVSLGDQASISCRSSQSLVHSNGRTYLEWYLQKPGQSPKVLIYKVSNRISGVPDRFSGSGSGTDFTLKISRVEAEDLGVYFCFQGSHVPYTFGGGTKLEIK
notes: Human chimeric antibody, human gamma1 CH and kappa CL (vector pKANTEX93), made in CHO/DG44 cells; also called FERM BP-7836
- binding result [1]: binds

B8: anti-FGF-8 chimeric antibody KM3334 (antibody, V domains shown)
VH: QVQLQQSGAEVARPGASVKLSCKASGYTFTDYYLNWVKQRSGQGLEWIGEIDPGSDSIYYNENLEGRATLTADKSSSTAYMQLNSLTSEDSAVYFCARYGYSRYDVRFVYWGQGTLVTVST
VL: DVLMTQTPLSLPVSLGDQASISCRSSQSLVHSNGRTYLEWYLQKPGQSPKVLIYKVSNRISGVPDRFSGSGSGTDFTLKISRVEAEDLGVYFCFQGSHVPYTFGGGTKLEIK
- binding result [5]: binds

B9: anti-FGF-8 CDR-grafted antibody HV0LV6 (YB2/0 cell-derived) (antibody, V domains shown)
VH: QVQLVQSGAEVKKPGASVKVSCKASGYTFTDYYLNWVRQAPGQGLEWMGEIDPGSDSIYYNENLEGRVTITADTSTSTAYMELSSLRSEDTAVYYCARYGYSRYDVRFVYWGQGTLVTVSS
VL: DVVMTQSPLSLPVSLGEPASISCRSSQSLVHSNGRTYLEWYLQKPGQSPKVLIYKVSNRISGVPDRFSGSGSGTDFTLKISRVEAEDVGVYFCFQGSHVPYTFGQGTKVEIK
notes: also called KM8037; FERM BP-8084
- binding result [6]: binds

B10: anti-FGF-8 CDR-grafted antibody HV0LV0 (YB2/0 cell-derived) (antibody, V domains shown)
VH: QVQLVQSGAEVKKPGASVKVSCKASGYTFTDYYLNWVRQAPGQGLEWMGEIDPGSDSIYYNENLEGRVTITADTSTSTAYMELSSLRSEDTAVYYCARYGYSRYDVRFVYWGQGTLVTVSS
VL: DIVMTQSPLSLPVTPGEPASISCRSSQSLVHSNGRTYLEWYLQKPGQSPQLLIYKVSNRISGVPDRFSGSGSGTDFTLKISRVEAEDVGVYYCFQGSHVPYTFGQGTKVEIK
- binding result [6]: binds

B11: anti-FGF-8 CDR-grafted antibody HV6LV6 (YB2/0 cell-derived) (antibody, V domains shown)
VH: QVQLVQSGAEVARPGASVKVSCKASGYTFTDYYLNWVRQRSGQGLEWIGEIDPGSDSIYYNENLEGRVTITADTSTSTAYMELSSLRSEDTAVYFCARYGYSRYDVRFVYWGQGTLVTVSS
VL: DVVMTQSPLSLPVSLGEPASISCRSSQSLVHSNGRTYLEWYLQKPGQSPKVLIYKVSNRISGVPDRFSGSGSGTDFTLKISRVEAEDVGVYFCFQGSHVPYTFGQGTKVEIK
- binding result [6]: binds
